From article PMC8473724

Assays:
Assay in all cases: anti-FLAG co-immunoprecipitation, SILAC LC-MS
Details in all cases: chain shown with the change; Ramos PTP1B KO cells; n = 3; read off a plot; scale: log10 SILAC ratio
[1] = target: E3 ubiquitin-protein ligase CBL, P22681
[2] = target: amyloid-like protein 2 (APLP2), Q06481
PLCγ1, P19174 = target: T1, PLCγ1, P19174
T1 chain: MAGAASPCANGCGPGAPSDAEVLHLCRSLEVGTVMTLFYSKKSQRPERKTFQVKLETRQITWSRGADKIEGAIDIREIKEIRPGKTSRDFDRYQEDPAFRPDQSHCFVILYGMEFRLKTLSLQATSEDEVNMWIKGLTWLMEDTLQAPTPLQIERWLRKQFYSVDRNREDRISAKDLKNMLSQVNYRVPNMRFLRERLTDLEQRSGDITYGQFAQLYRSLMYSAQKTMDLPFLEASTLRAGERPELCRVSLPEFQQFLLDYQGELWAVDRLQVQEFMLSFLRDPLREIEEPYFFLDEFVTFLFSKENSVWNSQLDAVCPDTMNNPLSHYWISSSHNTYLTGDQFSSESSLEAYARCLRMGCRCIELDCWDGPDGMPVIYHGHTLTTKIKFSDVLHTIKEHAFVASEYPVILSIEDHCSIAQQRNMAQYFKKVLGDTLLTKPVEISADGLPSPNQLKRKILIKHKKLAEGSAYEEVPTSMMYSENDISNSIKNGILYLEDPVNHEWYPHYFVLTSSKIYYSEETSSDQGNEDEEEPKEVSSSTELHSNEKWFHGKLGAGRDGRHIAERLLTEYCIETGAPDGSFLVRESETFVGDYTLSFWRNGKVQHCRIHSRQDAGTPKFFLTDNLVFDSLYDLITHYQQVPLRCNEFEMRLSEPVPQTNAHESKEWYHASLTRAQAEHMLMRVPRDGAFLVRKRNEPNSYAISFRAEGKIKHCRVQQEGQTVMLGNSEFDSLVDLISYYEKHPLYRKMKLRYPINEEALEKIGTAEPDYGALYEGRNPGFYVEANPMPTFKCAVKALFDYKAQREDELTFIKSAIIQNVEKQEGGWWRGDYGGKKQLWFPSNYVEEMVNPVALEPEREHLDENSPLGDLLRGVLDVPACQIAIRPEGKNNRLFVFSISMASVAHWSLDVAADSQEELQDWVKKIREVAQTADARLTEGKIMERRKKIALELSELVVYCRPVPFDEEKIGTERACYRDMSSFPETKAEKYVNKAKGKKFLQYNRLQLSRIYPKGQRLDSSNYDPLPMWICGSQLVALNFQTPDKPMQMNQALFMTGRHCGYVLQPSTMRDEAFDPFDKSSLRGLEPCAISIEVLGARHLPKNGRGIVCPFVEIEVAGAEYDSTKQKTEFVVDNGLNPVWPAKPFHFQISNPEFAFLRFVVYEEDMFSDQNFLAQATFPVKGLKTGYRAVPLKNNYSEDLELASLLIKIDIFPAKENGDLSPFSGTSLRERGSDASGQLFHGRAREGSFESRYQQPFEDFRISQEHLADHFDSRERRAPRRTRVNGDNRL

[3] = target: T2, intersectin-2 (ITSN2), Q9NZM3
T2 chain: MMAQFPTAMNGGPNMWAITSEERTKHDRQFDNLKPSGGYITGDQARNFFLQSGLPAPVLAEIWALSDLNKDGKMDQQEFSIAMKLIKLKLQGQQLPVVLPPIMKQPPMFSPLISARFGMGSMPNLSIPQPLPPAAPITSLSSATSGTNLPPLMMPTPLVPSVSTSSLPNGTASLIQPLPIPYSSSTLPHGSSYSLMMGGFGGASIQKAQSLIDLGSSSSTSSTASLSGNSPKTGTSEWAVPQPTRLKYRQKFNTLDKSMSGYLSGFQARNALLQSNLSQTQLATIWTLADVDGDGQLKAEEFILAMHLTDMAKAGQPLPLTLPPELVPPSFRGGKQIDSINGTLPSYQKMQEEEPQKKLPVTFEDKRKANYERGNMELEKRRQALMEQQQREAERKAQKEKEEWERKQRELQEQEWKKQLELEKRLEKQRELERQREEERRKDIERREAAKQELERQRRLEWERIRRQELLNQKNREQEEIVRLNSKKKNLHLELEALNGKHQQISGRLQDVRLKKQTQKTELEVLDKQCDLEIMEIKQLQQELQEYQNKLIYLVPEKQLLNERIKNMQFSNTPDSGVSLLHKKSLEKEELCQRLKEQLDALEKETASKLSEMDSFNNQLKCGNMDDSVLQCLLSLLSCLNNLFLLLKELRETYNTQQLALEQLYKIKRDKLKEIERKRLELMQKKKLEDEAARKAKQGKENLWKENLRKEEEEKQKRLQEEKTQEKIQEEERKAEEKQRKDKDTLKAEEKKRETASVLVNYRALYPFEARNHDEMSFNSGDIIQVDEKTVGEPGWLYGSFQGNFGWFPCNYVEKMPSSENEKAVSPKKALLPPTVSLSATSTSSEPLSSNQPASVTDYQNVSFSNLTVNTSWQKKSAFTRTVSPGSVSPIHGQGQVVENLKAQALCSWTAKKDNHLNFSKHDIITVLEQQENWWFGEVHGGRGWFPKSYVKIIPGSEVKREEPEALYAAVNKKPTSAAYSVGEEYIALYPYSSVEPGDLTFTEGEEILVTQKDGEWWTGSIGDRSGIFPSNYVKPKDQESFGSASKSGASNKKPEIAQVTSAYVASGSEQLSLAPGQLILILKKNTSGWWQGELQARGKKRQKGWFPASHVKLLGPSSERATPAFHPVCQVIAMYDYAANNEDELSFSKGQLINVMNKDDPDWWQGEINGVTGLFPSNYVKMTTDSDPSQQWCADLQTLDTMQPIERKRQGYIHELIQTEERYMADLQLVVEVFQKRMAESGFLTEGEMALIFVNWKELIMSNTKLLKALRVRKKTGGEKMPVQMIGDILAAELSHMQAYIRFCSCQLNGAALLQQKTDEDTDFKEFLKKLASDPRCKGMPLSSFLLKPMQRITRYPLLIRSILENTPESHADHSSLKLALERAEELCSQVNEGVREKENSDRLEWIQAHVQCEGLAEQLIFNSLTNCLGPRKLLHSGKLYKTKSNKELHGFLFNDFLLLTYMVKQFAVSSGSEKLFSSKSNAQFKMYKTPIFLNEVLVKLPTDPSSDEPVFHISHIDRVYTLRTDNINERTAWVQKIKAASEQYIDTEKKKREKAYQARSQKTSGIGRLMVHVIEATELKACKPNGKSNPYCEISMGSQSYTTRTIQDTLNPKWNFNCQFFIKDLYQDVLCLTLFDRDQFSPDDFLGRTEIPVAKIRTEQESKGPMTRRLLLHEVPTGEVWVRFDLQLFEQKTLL

PLCγ2, P16885 = target: T3, PLCγ2, P16885
T3 chain: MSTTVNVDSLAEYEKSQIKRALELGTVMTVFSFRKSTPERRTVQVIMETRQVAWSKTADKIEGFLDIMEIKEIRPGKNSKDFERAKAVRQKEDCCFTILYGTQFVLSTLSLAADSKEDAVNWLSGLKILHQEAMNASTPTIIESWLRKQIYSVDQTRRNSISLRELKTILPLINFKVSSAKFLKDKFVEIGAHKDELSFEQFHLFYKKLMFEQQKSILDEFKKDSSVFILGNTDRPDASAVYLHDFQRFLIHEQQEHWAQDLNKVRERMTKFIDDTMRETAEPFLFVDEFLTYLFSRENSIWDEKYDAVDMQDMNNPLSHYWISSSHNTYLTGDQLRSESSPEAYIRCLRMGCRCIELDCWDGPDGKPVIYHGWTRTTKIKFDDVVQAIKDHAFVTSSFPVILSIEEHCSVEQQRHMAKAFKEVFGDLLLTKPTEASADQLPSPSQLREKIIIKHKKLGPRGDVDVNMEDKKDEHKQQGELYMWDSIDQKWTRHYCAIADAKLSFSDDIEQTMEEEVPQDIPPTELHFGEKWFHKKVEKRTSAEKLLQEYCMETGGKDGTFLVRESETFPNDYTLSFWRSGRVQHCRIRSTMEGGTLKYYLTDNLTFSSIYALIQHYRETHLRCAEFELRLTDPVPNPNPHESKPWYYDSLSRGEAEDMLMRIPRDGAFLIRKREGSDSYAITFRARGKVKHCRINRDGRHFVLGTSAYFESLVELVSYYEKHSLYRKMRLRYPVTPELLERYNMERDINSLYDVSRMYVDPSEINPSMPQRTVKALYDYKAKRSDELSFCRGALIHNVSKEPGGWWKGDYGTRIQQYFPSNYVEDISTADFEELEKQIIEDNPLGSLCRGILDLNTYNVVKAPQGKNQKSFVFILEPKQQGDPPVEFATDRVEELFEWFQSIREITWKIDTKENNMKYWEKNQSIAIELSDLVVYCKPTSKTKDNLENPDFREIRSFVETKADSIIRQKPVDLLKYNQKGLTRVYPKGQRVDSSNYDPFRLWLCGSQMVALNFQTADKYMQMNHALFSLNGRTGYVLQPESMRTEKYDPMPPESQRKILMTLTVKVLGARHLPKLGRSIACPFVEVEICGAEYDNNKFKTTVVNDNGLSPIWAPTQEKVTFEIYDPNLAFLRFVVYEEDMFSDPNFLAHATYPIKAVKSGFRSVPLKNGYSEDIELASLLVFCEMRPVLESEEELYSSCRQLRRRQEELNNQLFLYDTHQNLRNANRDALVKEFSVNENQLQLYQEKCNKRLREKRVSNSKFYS

[4] = target: growth factor receptor-bound protein 2 (GRB2), P62993
[5] = target: T4, epidermal growth factor receptor substrate 15-like 1 (EPS15L1), Q9UBC2
T4 chain: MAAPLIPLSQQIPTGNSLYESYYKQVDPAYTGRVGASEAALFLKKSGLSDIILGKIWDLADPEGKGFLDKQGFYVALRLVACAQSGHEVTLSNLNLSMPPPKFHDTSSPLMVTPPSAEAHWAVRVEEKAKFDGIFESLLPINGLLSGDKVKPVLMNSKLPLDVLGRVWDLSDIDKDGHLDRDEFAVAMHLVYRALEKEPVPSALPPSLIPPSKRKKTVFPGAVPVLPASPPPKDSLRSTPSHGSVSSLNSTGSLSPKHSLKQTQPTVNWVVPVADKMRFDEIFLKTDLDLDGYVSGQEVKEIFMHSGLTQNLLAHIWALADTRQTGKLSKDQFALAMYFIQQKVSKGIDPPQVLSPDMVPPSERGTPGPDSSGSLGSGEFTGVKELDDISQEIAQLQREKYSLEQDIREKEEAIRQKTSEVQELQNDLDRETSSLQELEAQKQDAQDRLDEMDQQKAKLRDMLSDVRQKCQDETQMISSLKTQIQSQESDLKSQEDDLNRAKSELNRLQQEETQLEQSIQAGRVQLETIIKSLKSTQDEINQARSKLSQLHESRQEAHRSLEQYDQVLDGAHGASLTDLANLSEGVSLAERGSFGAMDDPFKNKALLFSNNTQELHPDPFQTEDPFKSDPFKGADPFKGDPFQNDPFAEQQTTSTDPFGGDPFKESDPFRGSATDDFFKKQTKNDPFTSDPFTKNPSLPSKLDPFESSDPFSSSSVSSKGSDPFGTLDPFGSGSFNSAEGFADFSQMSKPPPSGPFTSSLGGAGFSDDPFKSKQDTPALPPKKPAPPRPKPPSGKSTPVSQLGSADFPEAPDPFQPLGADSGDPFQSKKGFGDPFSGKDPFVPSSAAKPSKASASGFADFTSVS

amyloid-like protein 2 (APLP2), Q06481, sequence (Q06481 32-763): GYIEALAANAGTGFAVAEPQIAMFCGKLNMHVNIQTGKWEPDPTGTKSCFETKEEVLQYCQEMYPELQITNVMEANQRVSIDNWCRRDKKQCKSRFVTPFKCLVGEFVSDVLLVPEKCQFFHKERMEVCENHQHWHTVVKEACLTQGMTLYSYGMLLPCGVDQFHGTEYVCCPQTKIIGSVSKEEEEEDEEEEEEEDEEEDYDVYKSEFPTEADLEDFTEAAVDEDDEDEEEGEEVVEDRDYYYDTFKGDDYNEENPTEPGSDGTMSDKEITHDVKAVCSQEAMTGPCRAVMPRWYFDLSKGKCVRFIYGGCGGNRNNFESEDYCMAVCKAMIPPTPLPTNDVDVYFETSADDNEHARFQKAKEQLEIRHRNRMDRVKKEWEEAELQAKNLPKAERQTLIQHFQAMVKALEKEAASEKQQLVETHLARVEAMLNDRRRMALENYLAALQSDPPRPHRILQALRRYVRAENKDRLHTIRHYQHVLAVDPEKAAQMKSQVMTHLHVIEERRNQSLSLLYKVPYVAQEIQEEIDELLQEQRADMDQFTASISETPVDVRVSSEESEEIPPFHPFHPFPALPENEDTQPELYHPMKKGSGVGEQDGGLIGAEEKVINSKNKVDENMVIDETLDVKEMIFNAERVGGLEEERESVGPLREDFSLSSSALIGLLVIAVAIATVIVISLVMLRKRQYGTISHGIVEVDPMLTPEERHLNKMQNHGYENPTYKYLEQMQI

B1: D181A; Y46F (protein)
chain: MEMEKEFEQIDKSGSWAAIYQDIRHEASDFPCRVAKLPKNKNRNRFRDVSPFDHSRIKLHQEDNDYINASLIKMEEAQRSYILTQGPLPNTCGHFWEMVWEQKSRGVVMLNRVMEKGSLKCAQYWPQKEEKEMIFEDTNLKLTLISEDIKSYYTVRQLELENLTTQETREILHFHYTTWPAFGVPESPASFLNFLFKVRESGSLSPEHGPVVVHCSAGIGRSGTFCLADTCLLLMDKRKDPSSVDIKKVLLEMRKFRMGLIQTADQLRFSYLAVIEGAKFIMGDSSVQDQWKELSHEDLEPPPEHIPPPPRPPKRILEPHNGKCREFFPNHQWVKEETQEDKDCPIKEEKGSPLNAAPYGIESMSQDTEVRSRVVGGSLRGAQAASPAKGEPSLPEKDEDHALSY
enrichment [1]: 0.74 | enrichment [2]: 1.3 | enrichment (PLCγ1, P19174): 0.87 | enrichment [3]: 0.62 | enrichment (PLCγ2, P16885): 0.48 | enrichment [4]: 0.87 | enrichment [5]: 0.59
